# In patent US6566088B1, “Prolyl-4-hydroxylases” (Board of Regents, The University of Texas System, priority 2001, dated 2003):
# Residue numbers refer to the chain shown, from its start. Names and notes keep the numbering of the source.
# B1: HPH 1: human HIF prolyl hydroxylase 1, SEQ ID NO:1, Genbank XM_012332 (protein)
# chain: MPLGHIMRLDLEKIALEYIVPCLHEVGFCYLDNFLGEVVGDCVLERVKQLHCTGALRDGQLAGPRAGVSKRHLRGDQITWIGGNEEGCEAISFLLSLIDRLVLYCGSRLGKYYVKERSKAMVACYPGNGTGYVRHVDNPNGDGRCITCIYYLNKNWDAKLHGGILRIFPEGKSFIADVEPIFDRLLFFWSDRRNPHEVQPSYATRYAMTVWYFDAEERAEAKKKFRNLTRKTESALTED
# modifications: human
# B2: H135A: HPH 1 with His135 changed to alanine (protein)
# chain: B1 chain with H135A
# modifications: left off: small tags and cut ends
# B3: H196A: HPH 1 with His196 changed to alanine (protein)
# chain: B1 chain with H196A
# modifications: left off: small tags and cut ends
# B4: D137A: HPH 1 with Asp137 changed to alanine (protein)
# chain: B1 chain with D137A
# modifications: left off: small tags and cut ends
# B5: HPH 2: human HPH 1 paralog, Genbank AF229245; splice-variant in which residues 76-177 are omitted was used (protein)
# chain: ANDSGGPGGPSPSERDRQYCELCGKMENLLRCSRCRSSFYCCKEHQRQDWKKHKLVCQGSEGALGHGVGPHQHSGPAPPAAVPPPRAGAREPRKAAARRDNASGDAAKGKVKAKPPADPAAAASPCRAAAGGQGSAVAAEAEPGKEEPPARSSLFQEKANLYPPSNTPGDALSPGGGLRPNGQTKPLPALKLALEYIVPCMNKHGICVVDDFLGKETGQQIGDEVRALHDTGKFTDGQLVSQKSDSSKDIRGDKITWIEGKEPGCETIGLLMSSMDDLIRHCNGKLGSYKINGRTKAMVACYPGNGTGYVRHVDNPNGDGRCVTCIYYLNKDWDAKVSGGILRIFPEGKAQFADIEPKFDRLLFFWSDRRNPHEVQPAYATRYAITVWYFDADERARAKVKYLTGEKGVRVELNKPSDSVGKDVF
# modifications: left off: small tags and cut ends
# Key:
# [1] = system: HIF-1a activation of the HRE-driven reporter; test: Hypoxia-responsive (HRE) luciferase reporter co-transfection in 293 cells; assay type: cell-based, human
# Description: To test whether these HPH enzymes represent part of the hypoxic response pathway in vivo we first co-transfected (21) human embryonic kidney 293 cells with a hypoxia-responsive luciferase reporter (22) and increasing amounts of a vector expressing human HIF-1a under the control of the constitutive CMV promoter. Forced overexpression of HIF-1a can overcome the degradation pathway, resulting in accumulation of the HIF transcription factor under normoxic conditions and subsequent induction of the HRE-containing HIF reporter gene (22). […] Mutation of His^135, Asp^137 or His^196 to alanine eliminated the interfering activity of HPH 1 in these transfection assays. […] Finally, the ability of HPH 1 to diminish induction of the HIF-responsive luciferase reporter was lost when cells were incubated in an atmosphere containing 0.5% O2.
# 21. Transfection experiments were performed as in (22) with DNA amounts indicated in the text. Western blot analysis using an antibody specific for the carboxy-terminal V5 tag was used to confirm expression of each polypeptide following transfection of 1 μg of each expression vector.
# [2] = molecular target: human HIF-1a ODD peptide (Homo sapiens, UniProt Q16665, M561A/M568A); test: [35S]-pVHL pull-down prolyl hydroxylase assay with biotinylated HIF-1a ODD peptide; assay type: biochemical; details: for prolyl hydroxylase activity (pVHL association with the biotinylated peptide): enzyme in vitro transcribed/translated in rabbit reticulocyte lysate, ascorbate, 2-oxoglutarate, FeSO4 present
# [3] = system: CMV-driven luciferase reporter; test: Constitutive CMV-driven luciferase reporter co-transfection; assay type: cell-based, human
# [4] = system: transfected cell cultures; test: Visual inspection of cell cultures transfected with HPH 1 expression vector
Molecule,prolyl hydroxylase activity (pVHL association with the biotinylated peptide) [2],other results
B1,able to enhance pVHL association,"effect on induction of the HIF-dependent luciferase reporter ([1]; 293 cells, normoxic, 30 ng or 100 ng HIF-1a expression vector, 3 ng CMV-driven vector): able to attenuate; ability to diminish induction of the HIF-responsive luciferase reporter ([1]; atmosphere containing 0.5% O2): lost; effect on CMV-driven luciferase reporter expression [3]: did not attenuate; programmed cell death [4]: no overt evidence of programmed cell death"
B2,eliminated the prolyl hydroxylase activity,
B3,eliminated the prolyl hydroxylase activity,
B4,eliminated the prolyl hydroxylase activity,
B5,catalyze the hydroxylation,hydroxylation of the HIF-1a peptide substrate ([2]; enzyme expressed in bacterial cells and purified by affinity chromatography): able to hydroxylate
